From patent publication US10369187B2, “Peptide regulators of JNK family kinases” (Vanderbilt University, priority 2017, dated 2019)

What was measured:
[1] = target: JNK3 (Homo sapiens, UniProt P53779); test: MBP pull-down of purified JNK3; format: binding; settings: MBP-fusions, compared with T1A
Procedure: FIG. 5. […] Residues that differ between T1A and B1A are shown in magenta. b, c, d) Pull-down of purified JNK3 (b), MKK4 (c), and MKK7 (d) by MBP (negative control), MBP-arrestin-3 (positive control), MBP-T1A, and MBP-B1A, was performed, as described in Methods. Lower panels, Coomassie gels of loaded MBP-fusions; middle panels, Western blots of retained JNK3 (b), MKK4 (c), and MKK7 (d); upper panels, quantification of Western blots from 3-4 independent experiments. […] T1A sequence shown is SEQ ID NO:1. B1A sequence shown is SEQ ID NO:6.
To test the specificity of T1A action, its ability to bind purified MKK4, MKK7, and JNK3 was compared with that of B1A, a homologous N-terminal peptide from closely related arrestin-2, which differs from T1A only in four positions (FIG. 5). […] To test whether this difference in binding translates into differential activity in cells, the ability of YFP-T1A and YFP-B1A to facilitate JNK3 activation were compared in cells over-expressing ASK1, using YFP-arrestin-3 and YFP as positive and negative controls, respectively.
To make MBP-fusions containing arrestin-2/3 elements, the cDNAs encoding arrestin fragments were subcloned into pMal-p2T (generous gift from Dr. Keiji Tanaka, Tokyo Institute of Medical Science) between Eco RI and Xho I sites in frame with MBP, as described^23. […] Eluates were analyzed by SDS-PAGE and Western blotting.

[2] = target: T1, ASK1 (Homo sapiens, UniProt Q99683); test: Co-immunoprecipitation of HA-ASK1 with YFP construct from COS7 cells; format: binding; settings: HA-ASK1 and YFP-T1A co-expressed in COS7 cells, anti-GFP antibody
T1 construct: expressed in transfected cells; host or cells: COS7
T1 sequence (Q99683 1-1374): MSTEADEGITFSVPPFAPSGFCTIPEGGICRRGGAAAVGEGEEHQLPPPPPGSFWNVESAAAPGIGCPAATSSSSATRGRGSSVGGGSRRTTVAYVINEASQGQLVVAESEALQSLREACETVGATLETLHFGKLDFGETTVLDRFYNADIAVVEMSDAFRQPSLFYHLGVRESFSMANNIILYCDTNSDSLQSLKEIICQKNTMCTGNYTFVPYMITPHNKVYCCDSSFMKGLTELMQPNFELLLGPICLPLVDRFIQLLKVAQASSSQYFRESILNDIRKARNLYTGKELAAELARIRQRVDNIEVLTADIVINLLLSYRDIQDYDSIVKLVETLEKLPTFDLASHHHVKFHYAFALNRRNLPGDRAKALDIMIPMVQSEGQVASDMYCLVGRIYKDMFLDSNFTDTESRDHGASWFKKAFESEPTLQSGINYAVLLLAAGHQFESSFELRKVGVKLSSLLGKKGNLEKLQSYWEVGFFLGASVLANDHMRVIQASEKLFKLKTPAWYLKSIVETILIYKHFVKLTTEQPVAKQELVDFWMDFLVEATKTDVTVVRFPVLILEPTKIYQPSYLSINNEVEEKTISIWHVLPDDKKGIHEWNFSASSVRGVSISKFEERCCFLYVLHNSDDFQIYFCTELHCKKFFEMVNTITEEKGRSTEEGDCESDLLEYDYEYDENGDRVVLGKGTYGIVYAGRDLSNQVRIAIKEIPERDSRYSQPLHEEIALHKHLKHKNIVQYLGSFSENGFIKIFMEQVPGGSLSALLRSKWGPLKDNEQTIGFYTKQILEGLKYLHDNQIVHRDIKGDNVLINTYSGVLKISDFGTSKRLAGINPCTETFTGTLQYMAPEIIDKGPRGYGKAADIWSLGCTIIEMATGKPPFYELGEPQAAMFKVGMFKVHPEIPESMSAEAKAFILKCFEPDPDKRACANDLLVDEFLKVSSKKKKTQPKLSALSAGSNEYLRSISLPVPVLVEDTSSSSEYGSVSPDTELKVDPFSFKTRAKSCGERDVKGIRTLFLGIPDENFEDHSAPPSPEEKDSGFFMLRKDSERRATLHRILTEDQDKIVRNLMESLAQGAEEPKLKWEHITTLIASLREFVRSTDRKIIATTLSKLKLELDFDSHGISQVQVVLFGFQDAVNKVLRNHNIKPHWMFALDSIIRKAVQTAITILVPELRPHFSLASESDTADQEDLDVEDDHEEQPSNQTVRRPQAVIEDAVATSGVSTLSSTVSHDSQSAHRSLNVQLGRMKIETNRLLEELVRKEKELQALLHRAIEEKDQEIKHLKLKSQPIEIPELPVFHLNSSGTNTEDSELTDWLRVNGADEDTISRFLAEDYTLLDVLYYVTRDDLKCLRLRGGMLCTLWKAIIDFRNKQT
Procedure: T1A was expressed in E. coli as an MBP-fusion and purified it on an amylose column^23. The ability of purified GST-MKK4 or GST-MKK7 (FIG. 1A) to bind MBP-T1A immobilized on an amylose column was tested in an in vitro pull-down assay, where MBP and MBP-arrestin-3 served as negative and positive controls, respectively (FIG. 1B). MBP-T1A, but not control MBP, effectively retained both kinases (FIG. 1B). […] Next, it was tested whether T1A binds the uppermost kinase in the cascade, ASK1. Because ASK1 is not available in purified form, HA-tagged ASK1 and YFP-tagged T1A (using YFP as a control) were co-expressed in COS7 cells, lysed the cells, and immunoprecipitated YFP constructs with anti-GFP antibody (FIG. 1C).

Chain of JNK3 (P53779 whole entry, species assumed, the tested form may be a part): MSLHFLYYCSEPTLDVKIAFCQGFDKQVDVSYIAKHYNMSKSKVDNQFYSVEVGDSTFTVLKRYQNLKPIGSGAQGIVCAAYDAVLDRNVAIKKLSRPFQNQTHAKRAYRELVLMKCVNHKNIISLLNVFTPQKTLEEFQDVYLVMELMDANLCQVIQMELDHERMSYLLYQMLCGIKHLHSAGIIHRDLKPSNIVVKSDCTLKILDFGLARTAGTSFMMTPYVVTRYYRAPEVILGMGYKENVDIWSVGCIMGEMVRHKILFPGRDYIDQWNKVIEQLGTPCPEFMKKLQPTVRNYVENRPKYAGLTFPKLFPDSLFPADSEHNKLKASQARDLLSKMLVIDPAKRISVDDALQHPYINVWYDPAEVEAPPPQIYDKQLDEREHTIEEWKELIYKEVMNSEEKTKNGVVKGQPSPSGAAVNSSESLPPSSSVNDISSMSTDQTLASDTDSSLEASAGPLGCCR

Substance	binding of JNK3 in MBP pull-down [1]	binding of ASK1 (co-immunoprecipitation) [2]
MGDK-GTRVFKKASPNGKLTVYLGK (MGDKGTRVFKKASPNGKLTVYLGK; N-terminal MGDK; bovine) [B1A, homologous N-terminal peptide from arrestin-2, negative control]	less robust interaction	–
MGEKPGTRVFKKSSPNCKLTVYLGK (bovine) [T1A, first 25 residues of arrestin-3]	–	binds all upstream kinases of its activation cascade
